# Data published in patent US20130143798A1 (Novo Nordisk, published 2013).
# Numbered stars: 1 amine (or outer) side, 2 acyl side, 3 side chain; on linkers, the order of the positions; unused ones are H or OH. Square brackets hold non-standard residues; d marks the D form. Side chains are listed from the residue outwards. Ends that are not written are not given here. * marks the point of attachment. C18 diacid = O=C(O)CCCCCCCCCCCCCCCCC(=O)*; γGlu = O=C(O)[C@H](CCC(=O)[*:2])N[*:1]; AEEA = NCCOCCOCC(=O)O; Aib = CC(C)(N)C(=O)O
# B1: N^ε29-([2-[2-[2-[[(4S)-5-hydroxy-4-[(18-hydroxy-18-oxooctadecanoyl)amino]5-oxopentanoyl]amino]ethoxy]ethoxy]acetyl]amino]ethoxy]ethoxy]acetyl]])[Leu^27,Lys^29]G … (peptide)
# peptide: HSQGTFTSDYSKYLDSRRAQDFVQWLLNK([AEEA-AEEA-γGlu-C18 diacid])
# modifications: not fully specified; printed as N^ε29-([2-[2-[2-[[(4S)-5-hydroxy-4-[(18-hydroxy-18-oxooctadecanoyl)amino]5-oxopentanoyl]amino]ethoxy]ethoxy]acetyl]amino]ethoxy]ethoxy]acetyl]])[Leu^27,Lys^29]Glucagon
# B2: N^α([Leu^27]Glucagonyl) … (peptide)
# peptide: HSQGTFTSDYSKYLDSRRAQDFVQWLLNTK
# modifications: C-terminal Lys (position 30): N-epsilon acylated with the substituent printed in the name
# B3: N^α([Glu^16,Gln^17,Arg^20]Glucagonyl) … (peptide)
# peptide: HSQGTFTSDYSKYLDEQRARDFVQWLMNTK([AEEA-AEEA-γGlu-C18 diacid])-NH2
# modifications: N-terminus assumed
# SMILES: CSCC[C@H](NC(=O)[C@H](CC(C)C)NC(=O)[C@H](Cc1c[nH]c2ccccc12)NC(=O)[C@H](CCC(N)=O)NC(=O)[C@@H](NC(=O)[C@H](Cc1ccccc1)NC(=O)[C@H](CC(=O)O)NC(=O)[C@H](CCCNC(=N)N)NC(=O)[C@H](C)NC(=O)[C@H](CCCNC(=N)N)NC(=O)[C@H](CCC(N)=O)NC(=O)[C@H](CCC(=O)O)NC(=O)[C@H](CC(=O)O)NC(=O)[C@H](CC(C)C)NC(=O)[C@H](Cc1ccc(O)cc1)NC(=O)[C@H](CCCCN)NC(=O)[C@H](CO)NC(=O)[C@H](Cc1ccc(O)cc1)NC(=O)[C@H](CC(=O)O)NC(=O)[C@H](CO)NC(=O)[C@@H](NC(=O)[C@H](Cc1ccccc1)NC(=O)[C@@H](NC(=O)CNC(=O)[C@H](CCC(N)=O)NC(=O)[C@H](CO)NC(=O)[C@@H](N)Cc1c[nH]cn1)[C@@H](C)O)[C@@H](C)O)C(C)C)C(=O)N[C@@H](CC(N)=O)C(=O)N[C@H](C(=O)N[C@@H](CCCCNC(=O)COCCOCCNC(=O)COCCOCCNC(=O)CC[C@H](NC(=O)CCCCCCCCCCCCCCCCC(=O)O)C(=O)O)C(N)=O)[C@@H](C)O
# B4: N^α([Glu^16,Gln^17,Ala^18,Arg^20]Glucagonyl) … (peptide)
# peptide: HSQGTFTSDYSKYLDEQAARDFVQWLMNTK([AEEA-AEEA-γGlu-C18 diacid])-NH2
# modifications: N-terminus assumed
# SMILES: CSCC[C@H](NC(=O)[C@H](CC(C)C)NC(=O)[C@H](Cc1c[nH]c2ccccc12)NC(=O)[C@H](CCC(N)=O)NC(=O)[C@@H](NC(=O)[C@H](Cc1ccccc1)NC(=O)[C@H](CC(=O)O)NC(=O)[C@H](CCCNC(=N)N)NC(=O)[C@H](C)NC(=O)[C@H](C)NC(=O)[C@H](CCC(N)=O)NC(=O)[C@H](CCC(=O)O)NC(=O)[C@H](CC(=O)O)NC(=O)[C@H](CC(C)C)NC(=O)[C@H](Cc1ccc(O)cc1)NC(=O)[C@H](CCCCN)NC(=O)[C@H](CO)NC(=O)[C@H](Cc1ccc(O)cc1)NC(=O)[C@H](CC(=O)O)NC(=O)[C@H](CO)NC(=O)[C@@H](NC(=O)[C@H](Cc1ccccc1)NC(=O)[C@@H](NC(=O)CNC(=O)[C@H](CCC(N)=O)NC(=O)[C@H](CO)NC(=O)[C@@H](N)Cc1c[nH]cn1)[C@@H](C)O)[C@@H](C)O)C(C)C)C(=O)N[C@@H](CC(N)=O)C(=O)N[C@H](C(=O)N[C@@H](CCCCNC(=O)COCCOCCNC(=O)COCCOCCNC(=O)CC[C@H](NC(=O)CCCCCCCCCCCCCCCCC(=O)O)C(=O)O)C(N)=O)[C@@H](C)O
# B5: N^ε24-([2-[2-[2-[[2-[2-[2-[[(4S)-5-hydroxy-4-[(18-hydroxy-18-oxooctadecanoyl)amino]-5-oxopentanoyl]amino]ethoxy]ethoxy]acetyl]amino]ethoxy]ethoxy]acetyl]) … (peptide)
# peptide: H[Aib]QGTFTSDYSKYLDERRAQDFVK([AEEA-AEEA-γGlu-C18 diacid])WLLNT-NH2
# modifications: N-terminus assumed
# SMILES: CC(C)C[C@H](NC(=O)[C@H](Cc1ccc(O)cc1)NC(=O)[C@H](CCCCN)NC(=O)[C@H](CO)NC(=O)[C@H](Cc1ccc(O)cc1)NC(=O)[C@H](CC(=O)O)NC(=O)[C@H](CO)NC(=O)[C@@H](NC(=O)[C@H](Cc1ccccc1)NC(=O)[C@@H](NC(=O)CNC(=O)[C@H](CCC(N)=O)NC(=O)C(C)(C)NC(=O)[C@@H](N)Cc1c[nH]cn1)[C@@H](C)O)[C@@H](C)O)C(=O)N[C@@H](CC(=O)O)C(=O)N[C@@H](CCC(=O)O)C(=O)N[C@@H](CCCNC(=N)N)C(=O)N[C@@H](CCCNC(=N)N)C(=O)N[C@@H](C)C(=O)N[C@@H](CCC(N)=O)C(=O)N[C@@H](CC(=O)O)C(=O)N[C@@H](Cc1ccccc1)C(=O)N[C@H](C(=O)N[C@@H](CCCCNC(=O)COCCOCCNC(=O)COCCOCCNC(=O)CC[C@H](NC(=O)CCCCCCCCCCCCCCCCC(=O)O)C(=O)O)C(=O)N[C@@H](Cc1c[nH]c2ccccc12)C(=O)N[C@@H](CC(C)C)C(=O)N[C@@H](CC(C)C)C(=O)N[C@@H](CC(N)=O)C(=O)N[C@H](C(N)=O)[C@@H](C)O)C(C)C
# B6: N^ε24-([2-[2-[2-[[2-[2-[2-[[(4S)-5-hydroxy-4-[(18-hydroxy-18-oxooctadecanoyl)amino]-5-oxopentanoyl]amino]ethoxy]ethoxy]acetyl]amino]ethoxy]ethoxy]acetyl]) … (peptide)
# peptide: H[dS]QGTFTSDYSKYLAEQRARDFVK([AEEA-AEEA-γGlu-C18 diacid])WLLNT-NH2
# modifications: N-terminus assumed
# SMILES: CC(C)C[C@H](NC(=O)[C@H](Cc1ccc(O)cc1)NC(=O)[C@H](CCCCN)NC(=O)[C@H](CO)NC(=O)[C@H](Cc1ccc(O)cc1)NC(=O)[C@H](CC(=O)O)NC(=O)[C@H](CO)NC(=O)[C@@H](NC(=O)[C@H](Cc1ccccc1)NC(=O)[C@@H](NC(=O)CNC(=O)[C@H](CCC(N)=O)NC(=O)[C@@H](CO)NC(=O)[C@@H](N)Cc1c[nH]cn1)[C@@H](C)O)[C@@H](C)O)C(=O)N[C@@H](C)C(=O)N[C@@H](CCC(=O)O)C(=O)N[C@@H](CCC(N)=O)C(=O)N[C@@H](CCCNC(=N)N)C(=O)N[C@@H](C)C(=O)N[C@@H](CCCNC(=N)N)C(=O)N[C@@H](CC(=O)O)C(=O)N[C@@H](Cc1ccccc1)C(=O)N[C@H](C(=O)N[C@@H](CCCCNC(=O)COCCOCCNC(=O)COCCOCCNC(=O)CC[C@H](NC(=O)CCCCCCCCCCCCCCCCC(=O)O)C(=O)O)C(=O)N[C@@H](Cc1c[nH]c2ccccc12)C(=O)N[C@@H](CC(C)C)C(=O)N[C@@H](CC(C)C)C(=O)N[C@@H](CC(N)=O)C(=O)N[C@H](C(N)=O)[C@@H](C)O)C(C)C
# B7: N^ε24-([2-[2-[2-[[2-[2-[2-[[(4S)-5-hydroxy-4-[(18-hydroxy-18-oxooctadecanoyl)amino]-5-oxopentanoyl]amino]ethoxy]ethoxy]acetyl]amino]ethoxy]ethoxy]acetyl])[Glu^2 … (peptide)
# peptide: HSQGTFTSDYSKYLDSRRAQEFVK([AEEA-AEEA-γGlu-C18 diacid])RLLNT-NH2
# modifications: N-terminus assumed
# SMILES: CC(C)C[C@H](NC(=O)[C@H](Cc1ccc(O)cc1)NC(=O)[C@H](CCCCN)NC(=O)[C@H](CO)NC(=O)[C@H](Cc1ccc(O)cc1)NC(=O)[C@H](CC(=O)O)NC(=O)[C@H](CO)NC(=O)[C@@H](NC(=O)[C@H](Cc1ccccc1)NC(=O)[C@@H](NC(=O)CNC(=O)[C@H](CCC(N)=O)NC(=O)[C@H](CO)NC(=O)[C@@H](N)Cc1c[nH]cn1)[C@@H](C)O)[C@@H](C)O)C(=O)N[C@@H](CC(=O)O)C(=O)N[C@@H](CO)C(=O)N[C@@H](CCCNC(=N)N)C(=O)N[C@@H](CCCNC(=N)N)C(=O)N[C@@H](C)C(=O)N[C@@H](CCC(N)=O)C(=O)N[C@@H](CCC(=O)O)C(=O)N[C@@H](Cc1ccccc1)C(=O)N[C@H](C(=O)N[C@@H](CCCCNC(=O)COCCOCCNC(=O)COCCOCCNC(=O)CC[C@H](NC(=O)CCCCCCCCCCCCCCCCC(=O)O)C(=O)O)C(=O)N[C@@H](CCCNC(=N)N)C(=O)N[C@@H](CC(C)C)C(=O)N[C@@H](CC(C)C)C(=O)N[C@@H](CC(N)=O)C(=O)N[C@H](C(N)=O)[C@@H](C)O)C(C)C
# Molecular target: glucagon receptor (UniProt P47871 26-477, limits assumed)
# Test: cell-based or functional assay
# glucagon receptor, sequence (P47871 26-477 limits assumed): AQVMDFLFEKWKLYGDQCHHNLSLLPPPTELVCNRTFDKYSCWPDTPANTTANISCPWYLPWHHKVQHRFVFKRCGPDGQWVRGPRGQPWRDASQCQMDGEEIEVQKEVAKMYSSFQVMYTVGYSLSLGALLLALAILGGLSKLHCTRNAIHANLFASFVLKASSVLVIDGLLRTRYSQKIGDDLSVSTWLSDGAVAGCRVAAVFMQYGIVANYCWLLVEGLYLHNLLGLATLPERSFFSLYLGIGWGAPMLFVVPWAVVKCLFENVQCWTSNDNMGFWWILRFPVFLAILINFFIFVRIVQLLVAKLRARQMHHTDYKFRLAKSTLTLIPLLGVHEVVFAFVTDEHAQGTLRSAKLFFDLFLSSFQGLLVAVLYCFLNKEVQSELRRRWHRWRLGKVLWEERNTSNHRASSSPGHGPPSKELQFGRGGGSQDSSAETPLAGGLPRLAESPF
row,Binder,Assay (I) Glucagon [EC50]
1,B1,0.046 nM
2,B2,0.019 nM
3,HSQGTFTSDYSKYLDTRRAQDFVK([AEEA-AEEA-γGlu-C18 diacid])WLLST,0.016 nM
4,HSQGTFTSDYSKYLDSRRAQDFVK([AEEA-AEEA-γGlu-C18 diacid])WLLST,0.02 nM
5,HSQGTFTSDYSKYLDSRRAQDFVK([AEEA-AEEA-γGlu-C18 diacid])WLLTT,0.024 nM
6,HSQGTFTSDYSKYLDK([AEEA-AEEA-γGlu-C18 diacid])RRAQDFVQWLLNT,0.003 nM
7,HSQGTFTSDYSKYLDSRK([AEEA-AEEA-γGlu-C18 diacid])AQDFVQWLLNT,0.206 nM
8,HSQGTFTSDYSKYLDSK([AEEA-AEEA-γGlu-C18 diacid])RAQDFVQWLLNT,0.094 nM
9,HSQGTFTSDYSRYLDSRRAQDFVK([AEEA-AEEA-γGlu-C18 diacid])WLLNT,0.109 nM
10,HSQGTFTSDYSKYLDSRRAQEFVK([AEEA-AEEA-γGlu-C18 diacid])WLLNT,0.021 nM
11,H[dS]QGTFTSDYSKYLDSRRAKDFVQWLMNTK-NH2 (not fully specified),0.54 nM
12,B3,0.192 nM
13,B4,0.406 nM
14,H[dS]QGTFTSDYSKYLDERRAQDFVK([AEEA-AEEA-γGlu-C18 diacid])WLLNT,0.149 nM
15,B5,0.135 nM
16,B6,0.137 nM
17,B7,0.043 nM
